Measured values published in patent publication US20230045873A1.

Target: oxMIF (recombinant human MIF immobilized into microwell plates, transforming MIF to oxMIF) (human) (UniProt P14174)
Assay: ELISA on immobilized MIF (oxMIF), protein L-HRP detection, mean of triplicate

Sequence of oxMIF (recombinant human MIF immobilized into microwell plates, transforming MIF to oxMIF) (human) (P14174 2-115 limits assumed): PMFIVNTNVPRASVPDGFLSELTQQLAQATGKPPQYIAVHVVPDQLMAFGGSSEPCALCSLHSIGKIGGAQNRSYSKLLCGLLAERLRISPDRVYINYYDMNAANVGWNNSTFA

Substance: Imalumab (C0008), anti-oxMIF monospecific antibody
- EC50: 0.6 nM
